Laboratory results: article PMC11633098

Experiments:
[1] = molecular target: human plasminogen (human) (UniProt P00747); test: ELISA; inhibition assay: Plg or Pln coated at 0.5 µg/well; 100 nM rSesY with 0 to 10 mM tranexamic acid or arginine; anti-His HRP detection; RT, 1 h
human plasmin (human) [2] = test: as above
human plasmin (human) [3] = molecular target: human plasmin (human)
[4] = molecular target: human plasminogen (human) (UniProt P00747); test: ELISA; solid-phase binding: Plg, Pln or BSA immobilised on 4HBX plates; increasing concentrations (1 nM to 4 µM) of recombinant protein; anti-His HRP detection; one-site specific binding fit; apparent KD
human plasmin (human) [5] = test: as above
human plasmin (human) [6] = molecular target: human plasmin (human); remark: listed apart in the source

UniProt P00747, sequence (P00747 20-810): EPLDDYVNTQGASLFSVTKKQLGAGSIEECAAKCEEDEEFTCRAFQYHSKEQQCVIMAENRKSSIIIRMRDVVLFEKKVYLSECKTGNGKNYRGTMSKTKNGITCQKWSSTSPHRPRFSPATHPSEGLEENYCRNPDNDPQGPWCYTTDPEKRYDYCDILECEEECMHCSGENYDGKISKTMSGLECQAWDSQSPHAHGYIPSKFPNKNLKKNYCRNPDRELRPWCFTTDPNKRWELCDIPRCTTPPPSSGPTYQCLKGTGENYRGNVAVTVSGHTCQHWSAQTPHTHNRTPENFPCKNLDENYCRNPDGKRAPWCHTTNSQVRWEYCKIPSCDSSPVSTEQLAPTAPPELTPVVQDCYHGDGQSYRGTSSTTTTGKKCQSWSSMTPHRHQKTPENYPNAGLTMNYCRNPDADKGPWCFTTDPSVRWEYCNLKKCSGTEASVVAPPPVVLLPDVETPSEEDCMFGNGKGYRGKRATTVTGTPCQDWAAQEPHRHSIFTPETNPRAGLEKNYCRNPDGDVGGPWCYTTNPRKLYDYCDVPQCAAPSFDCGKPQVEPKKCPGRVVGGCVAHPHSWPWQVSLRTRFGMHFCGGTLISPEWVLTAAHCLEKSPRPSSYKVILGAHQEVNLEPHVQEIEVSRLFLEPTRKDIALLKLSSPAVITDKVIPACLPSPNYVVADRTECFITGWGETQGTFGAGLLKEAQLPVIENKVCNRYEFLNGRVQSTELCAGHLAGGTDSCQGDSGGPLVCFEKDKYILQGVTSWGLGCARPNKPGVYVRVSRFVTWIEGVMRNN

Substance | percent reduction of binding by 2 mM tranexamic acid [1] | percent reduction of binding by 2 mM tranexamic acid (human plasmin (human) [2]) | fibrin gel remaining at 6 h and 12 h after digestion of pre-formed fibrin gel by Pln with 1, 2.5, 5 and 10 µM rSesY (38% to over 80%) (human plasmin (human) [3]) | fibrin gel remaining at 12 h after digestion of pre-formed fibrin gel by Pln with 5 µM rSesY (controls 10%–25%) (human plasmin (human) [3]) | Kd [4] | Kd (human plasmin (human) [5]) | Vmax of Pln on S-2251 without and with rSesY (0 to 10 µM) (human plasmin (human) [6])
recombinant SesY_(32–341) (S. epidermidis surface protein Y) (domain or fragment) | > 85% | > 85% | > 80% | 80% | 210 nM | 16 nM | 1.8 nM/min
recombinant fibronectin-binding protein B N2N3 domain from S. aureus (from UniProt A0A0H2XKG3 37-940) (domain or fragment) |  |  |  |  | 30 nM |  | 
